The target of experiment [1] is recombinant wild-type PfPKG (Plasmodium falciparum) (UniProt Q8I719).
In experiment [2] the target is recombinant PfPKG quintuple mutant STmut (Plasmodium falciparum) (UniProt Q8I719).

PKAtide (peptide): the figures for the PKAtide concentration at half maximal velocity (Km), ParM-ADP real-time fluorescence kinase assay in experiment [1] and in experiment [2] were 10 µM and 13 µM, respectively.

Values taken from PMC11236177.
